This is an account of results in the supplement of paper PMC5998384.

Data set [1] deals with HeLa Kyoto. In words: melting temperature (median over replicates), in situ; higher = more thermally stable.
In data set [2] the test system is HeLa Kyoto. In words: solubility in G1/S (NP-40 vs SDS abundance) (log2 ratio); higher = more soluble. As to conditions: cell cycle stage: G1/S.
The subject of data set [3] is HeLa Kyoto. In words: thermal stability score vs G1/S (z-score of summed log2 fold changes over temperatures); higher = more thermally stable than in G1/S.
The test system of data set [4] is HeLa Kyoto. In words: solubility change mitosis vs G1/S (difference of NP-40 vs SDS log2 ratios) (log2 ratio difference); higher = more soluble in mitosis.
[5] abbreviates: cell cycle stage: early G1 (4.5 h after nocodazole release).
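Wherever melting temperature (median over replicates), in situ is given: HeLa Kyoto cells synchronized by double thymidine or nocodazole block, proteins quantified by TMT10plex mass spectrometry, three independent biological replicates.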
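Wherever solubility change mitosis vs G1/S (difference of NP-40 vs SDS log2 ratios) is given: synchronized HeLa Kyoto cells (double thymidine block for G1/S, nocodazole release for mitosis), protein amounts in NP-40 versus SDS lysates quantified by mass spectrometry, three biological replicates.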
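Wherever solubility in G1/S (NP-40 vs SDS abundance) is given: HeLa Kyoto cells arrested at G1/S by double thymidine block, proteins quantified by TMT10plex mass spectrometry in mild NP-40 versus SDS extracts, three biological replicates.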
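Wherever thermal stability score vs G1/S (z-score of summed log2 fold changes over temperatures) is given: synchronized HeLa Kyoto cells, proteins quantified by TMT10plex mass spectrometry, three biological replicates, mitosis taken 0.5 h after nocodazole release, G1/S directly after double thymidine block.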

Consider “MAQEVSEYLSQNPRVAAWVEALRCDGETDKHWRHRRDFLLRNAGDLAPAGGAASASTDEAADAESGTRNRQLQQLISFSMAWANHVFLGCRYPQKVMDKILSMAEGIKVTDAPTYTTRDELVAKVKKRGISSSNEGVEEPSKKRVIEGKNSSAVEQDHAKTSAKTERASAQQENSSTCIGSAIKSESGNSARSSGISSQNSSTSDGDRSVSSQSSSSVSSQVTTAGSGKASEAEAPDKHGSASFVSLLKSSVNSHMTQSTDSRQQSGSPKKSALEGSSASASQSSSEIEVPLLGSSGSSEVELPLLSSKPSSETASSGLTSKTSSEASVSSSVAKNSSSSGTSLLTPKSSSSTNTSLLTSKSTSQVAASLLASKSSSQTSGSLVSKSTSLASVSQLASKSSSQTSTSQLPSKSTSQSSESSVKFSCKLTNEDVKQKQPFFNRLYKTVAWKLVAVGGFSPNVNHGELLNAAIEALKATLDVFFVPLKELADLPQNKSSQESIVCELRCKSVYLGTGCGKSKENAKAVASREALKLFLKKKVVVKICKRKYRGSEIEDLVLLDEESRPVNLPPALKHPQELL [CDKN2AIP]”, for which the melting temperature with HeLa Kyoto [1] (cell cycle stage: G1/S) is 50.2 °C; with HeLa Kyoto [1] (cell cycle stage: mitosis) it was 50.8 °C. The “solubility in G1/S (log2)” value in the data set on HeLa Kyoto [2] was -0.0572. For the same sequence, the figures for the thermal stability score in the data set on HeLa Kyoto [3] (setting [5]) and with HeLa Kyoto [3] (cell cycle stage: mitosis) were 1.13 and 1.43, respectively. Further, the “solubility change mitosis (log2)” value in the data set with HeLa Kyoto [4] was -0.0367.
In the case of “MAQFGGQKNPPWATQFTATAVSQPAALGVQQPSLLGASPTIYTQQTALAAAGLTTQTPANYQLTQTAALQQQAAAAAAALQQQYSQPQQALYSVQQQLQQPQQTLLTQPAVALPTSLSLSTPQPTAQITVSYPTPRSSQQQTQPQKQRVFTGVVTKLHDTFGFVDEDVFFQLSAVKGKTPQVGDRVLVEATYNPNMPFKWNAQRIQTLPNQNQSQTQPLLKTPPAVLQPIAPQTTFGVQTQPQPQSLLQAQISAASITPLLQTQPQPLLQQPQQKAGLLQPPVRIVSQPQPARRLDPPSRFSGRNDRGDQVPNRKDDRSRERERERRRSRERSPQRKRSRERSPRRERERSPRRVRRVVPRYTVQFSKFSLDCPSCDMMELRRRYQNLYIPSDFFDAQFTWVDAFPLSRPFQLGNYCNFYVMHREVESLEKNMAILDPPDADHLYSAKVMLMASPSMEDLYHKSCALAEDPQELRDGFQHPARLVKFLVGMKGKDEAMAIGGHWSPSLDGPDPEKDPSVLIKTAIRCCKALTGIDLSVCTQWYRFAEIRYHRPEETHKGRTVPAHVETVVLFFPDVWHCLPTRSEWETLSRGYKQQLVEKLQGERKEADGEQDEEEKDDGEAKEISTPTHWSKLDPKTMKVNDLRKELESRALSSKGLKSQLIARLTKQLKVEEQKEEQKELEKSEKEEDEDDDRKSEDDKEEEERKRQEEIERQRRERRYILPDEPAIIVHPNWAAKSGKFDCSIMSLSVLLDYRLEDNKEHSFEVSLFAELFNEMLQRDFGVRIYKSLLSLPEKEDKKEKDKKSKKDERKDKKEERDDETDEPKPKRRKSGDDKDKKEDRDERKKEDKRKDDSKDDDETEEDNNQDEYDPMEAEEAEDEEDDRDEEEMTKRDDKRDINRYCKERPSKDKEKEKTQMITINRDLLMAFVYFDQSHCGYLLEKDLEEILYTLGLHLSRAQVKKLLNKVVLRESCFYRKLTDTSKDEENHEESESLQEDMLGNRLLLPTPTVKQESKDVEENVGLIVYNGAMVDVGSLLQKLEKSEKVRAEVEQKLQLLEEKTDEDEKTILNLENSNKSLSGELREVKKDLSQLQENLKISENMNLQFENQMNKTIRNLSTVMDEIHTVLKKDNVKNEDKDQKSKENGASV [CCAR1]”, the melting temperature was determined as 50.9 °C in the data set on HeLa Kyoto [1] (cell cycle stage: G1/S) and 50.8 °C in the data set with HeLa Kyoto [1] (cell cycle stage: mitosis). The “solubility in G1/S (log2)” value in the data set on HeLa Kyoto [2] is -0.232. The thermal stability score came to 0.304 in the data set on HeLa Kyoto [3] (setting [5]) and 1.74 with HeLa Kyoto [3] (cell cycle stage: mitosis). Moreover, in the data set on HeLa Kyoto [4], the “solubility change mitosis (log2)” value is 0.0916.
“MAQHFSLAACDVVGFDLDHTLCRYNLPESAPLIYNSFAQFLVKEKGYDKELLNVTPEDWDFCCKGLALDLEDGNFLKLANNGTVLRASHGTKMMTPEVLAEAYGKKEWKHFLSDTGMACRSGKYYFYDNYFDLPGALLCARVVDYLTKLNNGQKTFDFWKDIVAAIQHNYKMSAFKENCGIYFPEIKRDPGRYLHSCPESVKKWLRQLKNAGKILLLITSSHSDYCRLLCEYILGNDFTDLFDIVITNALKPGFFSHLPSQRPFRTLENDEEQEALPSLDKPGWYSQGNAVHLYELLKKMTGKPEPKVVYFGDSMHSDIFPARHYSNWETVLILEELRGDEGTRSQRPEESEPLEKKGKYEGPKAKPLNTSSKKWGSFFIDSVLGLENTEDSLVYTWSCKRISTYSTIAIPSIEAIAELPLDYKFTRFSSSNSKTAGYYPNPPLVLSSDETLISK [NT5DC1]”: the melting temperature is 55.5 °C in the data set on HeLa Kyoto [1] (cell cycle stage: G1/S) and 55.7 °C with HeLa Kyoto [1] (cell cycle stage: mitosis). Besides, the “solubility in G1/S (log2)” value with HeLa Kyoto [2] is 0.0982. The thermal stability score with HeLa Kyoto [3] (setting [5]) was 0.00809; in the data set on HeLa Kyoto [3] (cell cycle stage: mitosis), -0.565. Moreover, the “solubility change mitosis (log2)” value with HeLa Kyoto [4] is -0.212.
For the sequence “MAQLGAVVAVASSFFCASLFSAVHKIEEGHIGVYYRGGALLTSTSGPGFHLMLPFITSYKSVQTTLQTDEVKNVPCGTSGGVMIYFDRIEVVNFLVPNAVYDIVKNYTADYDKALIFNKIHHELNQFCSVHTLQEVYIELFDQIDENLKLALQQDLTSMAPGLVIQAVRVTKPNIPEAIRRNYELMESEKTKLLIAAQKQKVVEKEAETERKKALIEAEKVAQVAEITYGQKVMEKETEKKISEIEDAAFLAREKAKADAECYTAMKIAEANKLKLTPEYLQLMKYKAIASNSKIYFGKDIPNMFMDSAGSVSKQFEGLADKLSFGLEDEPLETATKEN [ERLIN2]”, the values for the melting temperature in the data set on HeLa Kyoto [1] (cell cycle stage: G1/S) and with HeLa Kyoto [1] (cell cycle stage: mitosis) were 52.7 °C and 53.2 °C, respectively. In the data set with HeLa Kyoto [2], the “solubility in G1/S (log2)” value worked out at 0.0653. In addition, the thermal stability score in the data set on HeLa Kyoto [3] (setting [5]) was determined as 2.26; in the data set on HeLa Kyoto [3] (cell cycle stage: mitosis), 1.92. The “solubility change mitosis (log2)” value in the data set on HeLa Kyoto [4] was -0.0221.
